The EC50 is the concentration that produces a half-maximal response.

Test [1] deals with T1, recombinant KIT D4/D5 polypeptide (D4/D5 region of human KIT, V308 to H515, with 5xHis tag) (human, UniProt P10721 26-519).
T1 construct: The end residue 246 was computed from the stated composition (33 + 208 + 5); This is the glycosylated (untreated) form; also called KIT D4/D5 antigen; KIT immunogen
The experiment in a line: competition solid phase ELISA on KIT D4/D5 antigen; reference 37M titrated alone, no competitor. In general terms: ELISA stands for enzyme-linked immunosorbent assay.

In test [2] the target is T1, recombinant KIT D4/D5 polypeptide …. The experiment in a line: competition solid phase ELISA on KIT D4/D5 antigen; reference 37M titrated with competitor antibody 37C at 10 nM.
Test [3] addresses T2, recombinant D4 domain polypeptide of human KIT (V308 to K412, with 6xHis tag) (human, UniProt P10721 26-412).
T2 construct: The end residue 144 was computed (33 + 105 + 6); also called D4 region; D4 domain of human KIT
As to the kind of experiment: solid phase ELISA, antigen coated on plate; D4 region alone.

Test [4] has as its target full-length, wild-type human KIT (human, UniProt P10721 26-976). As to the kind of experiment: cell-based or functional assay.
Test [5] has as its target T3, recombinant D5 domain polypeptide of human KIT (N410 to H515, with 5xHis tag) (human, UniProt P10721 26-519).
T3 construct: The end residue 144 was computed (33 + 106 + 5); also called D5 region; D5 domain of human KIT
The experiment in a line: solid phase ELISA, D5 antigen coated on the plate.

full-length, wild-type human KIT, sequence (P10721 other isoform, or with tags, fused parts or gaps limits assumed): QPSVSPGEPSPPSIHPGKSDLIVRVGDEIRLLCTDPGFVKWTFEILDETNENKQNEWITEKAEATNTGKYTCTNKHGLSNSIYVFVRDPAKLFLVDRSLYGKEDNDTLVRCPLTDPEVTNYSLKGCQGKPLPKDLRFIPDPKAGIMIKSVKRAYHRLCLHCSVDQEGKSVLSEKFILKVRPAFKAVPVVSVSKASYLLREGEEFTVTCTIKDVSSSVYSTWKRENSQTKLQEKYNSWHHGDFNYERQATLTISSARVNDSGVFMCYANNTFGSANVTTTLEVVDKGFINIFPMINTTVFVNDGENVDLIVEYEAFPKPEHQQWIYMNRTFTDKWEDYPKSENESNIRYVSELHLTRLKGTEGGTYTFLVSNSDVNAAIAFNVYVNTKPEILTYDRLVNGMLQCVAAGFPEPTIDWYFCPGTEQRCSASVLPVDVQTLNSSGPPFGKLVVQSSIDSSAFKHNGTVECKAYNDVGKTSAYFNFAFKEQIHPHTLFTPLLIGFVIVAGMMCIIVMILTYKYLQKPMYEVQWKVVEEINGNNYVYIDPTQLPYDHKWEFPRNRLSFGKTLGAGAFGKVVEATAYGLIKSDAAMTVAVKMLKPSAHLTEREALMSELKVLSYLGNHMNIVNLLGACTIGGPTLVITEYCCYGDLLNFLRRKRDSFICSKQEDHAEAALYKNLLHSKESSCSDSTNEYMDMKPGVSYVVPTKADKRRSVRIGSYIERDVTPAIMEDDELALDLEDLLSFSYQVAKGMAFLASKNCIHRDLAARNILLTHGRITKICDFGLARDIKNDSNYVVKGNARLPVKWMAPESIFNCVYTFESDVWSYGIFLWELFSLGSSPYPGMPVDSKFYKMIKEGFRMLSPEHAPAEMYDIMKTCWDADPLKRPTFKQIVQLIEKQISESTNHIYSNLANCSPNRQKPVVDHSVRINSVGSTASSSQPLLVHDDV
T1 sequence (P10721 other isoform, or with tags, fused parts or gaps): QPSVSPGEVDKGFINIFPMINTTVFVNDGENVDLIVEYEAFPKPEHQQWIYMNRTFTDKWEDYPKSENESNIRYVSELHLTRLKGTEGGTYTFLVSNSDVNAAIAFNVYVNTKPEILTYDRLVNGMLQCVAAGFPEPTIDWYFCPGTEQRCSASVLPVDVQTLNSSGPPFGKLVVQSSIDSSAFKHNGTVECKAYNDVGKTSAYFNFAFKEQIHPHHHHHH
T2 sequence (P10721 other isoform, or with tags, fused parts or gaps): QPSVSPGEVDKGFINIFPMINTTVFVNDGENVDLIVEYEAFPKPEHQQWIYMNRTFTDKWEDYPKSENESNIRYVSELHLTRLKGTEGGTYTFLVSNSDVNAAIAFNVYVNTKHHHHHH
T3 sequence (P10721 other isoform, or with tags, fused parts or gaps): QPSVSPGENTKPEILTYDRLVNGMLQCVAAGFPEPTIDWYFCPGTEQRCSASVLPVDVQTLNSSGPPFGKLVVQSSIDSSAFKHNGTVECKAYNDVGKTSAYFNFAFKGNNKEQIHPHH

B1: antibody 37M (antibody, V domains shown)
VH: QVQLKQSGAELVRPGASVKLSCKASGYTFTDYYINWVKQRPGQGLEWIARIYPGSGNTYYNEKFKGKATLTAEKSSSTAYMQLSSLTSEDSAVYFCARGVYYFDYWGQGTTLTVSS
VL: DIVMTQSQKFMSTSVGDRVSVTCKASQNVRTNVAWYQQKPGQSPKALIYSASYRYSGVPDRFTGSGSGTDFTLTISNVQSEDLADYFCQQYNSYPRTFGGGTKLEIKR
notes: also called anti-KIT antibody 37M; 37M antibody
As to B1, the EC50 was 0.115 nM in test [1], 2.8 nM in test [2], around 0.572 nM in test [3] and above 3000 nM in test [5]. The “50% inhibition concentration (IC50) of SCF-induced KIT tyrosine phosphorylation, cell-based phospho-KIT assay, CHO/KIT-WT cells” value in test [4] was around 0.109 nM. Besides, the “IC50 of SCF-induced AKT phosphorylation (phospho-AKT assay), sorted CHO/KIT-WT cells” value in test [4] was around 0.138 nM. In test [4], the “IC50 of SCF-induced KIT tyrosine phosphorylation, separate experiment (FIG. 11A), CHO/KIT-WT cells” value was around 0.096 nM.

(Values after US20190100598A1 (CELLDEX THERAPEUTICS, published 2019).)
